Consider 4 molecules from patent US20030054515A1 (MYRIAD GENETICS, published 2003).

In assay [1] the target is T1, Nuclear receptor coactivator 2 (NCOA2), amino acids 366-624, bait fused to the Gal4 DNA binding domain (Saccharomyces cerevisiae, UniProt P04386 1-147; Q15596 366-624).
T1 construct: Bait expressed in yeast from vector pGBTQ as a C-terminal fusion to Gal4 DBD; Residues are counted on GenBank X97674; also called GRIP 1
In words: yeast two-hybrid; Gal4 DBD bait, prey from human brain library (Gal4 AD). From the text: A total human brain (person) cDNA library cloned into the yeast expression vector pACT2 was purchased from Clontech (human brain […] cDNA, cat. #HL4004AH), transformed into the yeast strain J692 (genotype of this strain: Mat a, ade2, his3, leu2, trp1, URA3::GAL1-lacZ LYS2::GAL1-HIS3 gal4del gal80del cyhR2), and selected for the ability to drive leucine synthesis. In these yeast cells, each cDNA is expressed as a fusion protein with the transcription activation domain of the transcription factor Gal4 (amino acids 768 to 881) and a 9 amino acid hemagglutinin epitope tag. J693 cells (Mat α type) expressing the bait were then mated with J692 cells (Mat a type) expressing proteins from the brain library. The resulting diploid yeast cells expressing proteins interacting with the bait protein were selected for the ability to synthesize tryptophan, leucine, histidine, and β-galactosidase. DNA was prepared from each clone, transformed by electroporation into E. coli strain KC8 (Clontech KC8 electrocompetent cells, cat. #C2023-1), and the cells were selected on ampicillin-containing plates in the absence of either tryptophane (selection for the bait plasmid) or leucine (selection for the brain library plasmid). DNA for both plasmids was prepared and sequenced by di-deoxynucleotide chain termination method. […]

For assay [2], the target named is T1, Nuclear receptor coactivator 2 (NCOA2), …. Kind of assay: yeast two-hybrid; bait NCOA2 aa 366-624 (Gal4 DBD), prey from human brain library (Gal4 AD). From the text:
(§1) In these yeast cells, the bait is produced as a C-terminal fusion protein with the DNA binding domain of the transcription factor Gal4 (amino acids 1 to 147). A total human brain (person) cDNA library cloned into the yeast expression vector pACT2 was purchased from Clontech (human brain […] cDNA, cat. #HL4004AH), transformed into the yeast strain J692 (genotype of this strain: Mat a, ade2, his3, leu2, trp1, URA3::GAL1-lacZ LYS2::GAL1-HIS3 gal4del gal80del cyhR2), and selected for the ability to drive leucine synthesis. In these yeast cells, each cDNA is expressed as a fusion protein with the transcription activation domain of the transcription factor Gal4 (amino acids 768 to 881) and a 9 amino acid hemagglutinin epitope tag. J693 cells (Mat α type) expressing the bait were then mated with J692 cells (Mat a type) expressing proteins from the brain library. The resulting diploid yeast cells expressing proteins interacting with the bait protein were selected for the ability to synthesize tryptophan, leucine, histidine, and β-galactosidase. DNA was prepared from each clone, transformed by electroporation into E. coli strain KC8 (Clontech KC8 electrocompetent cells, cat. #C2023-1), and the cells were selected on ampicillin-containing plates in the absence of either tryptophane (selection for the bait plasmid) or leucine (selection for the brain library plasmid). […]

For assay [3] the target is unchanged. Kind of assay: yeast two-hybrid screen with NCOA2 as bait.
Text: as §1

B1: KIAA0619, amino acids 589-828, prey clone fused to the Gal4 activation domain (other, Saccharomyces cerevisiae;human, UniProt P04386 768-881, looked up, not shown: small tags and cut ends)
chain: ANFNQSGNIADSSLSFTFTNSSNGPNLITTQTNSQALSQPIASSNVHDNFMNNEITASKIDDGNNSKPLSPGWTDQTAYNAFGITTGMFNTTTMDDVYNYLFDDEDTPPNPKKESKQIQQLESNNRDLQDKNCLLETAKLKLEKEFINLQSALESERRDRTHGSEIINDLQGRICGLEEDLKNGKILLAKVELEKRQLQERFTDLEKEKSNMEIDMTYQLKVIQQSLEQEEAEHKATKARLADKNKIYESIEEAKSEAMKEMEKKLLEERTLKQKVENLLLEAEKRCSLLDCDLKQSQQKINELLKQKDVLNEDVRNLTLKIEQETQKRCLTQNDLKMQTQQVNTLKMSEKQLK
notes: Prey from a human brain cDNA library in pACT2; residues counted on GenBank AB014519; also called ROCK2
As for B1, the binding result in assay [1] is recorded as “binds”.

B2: XE169, amino acids 1239-1439, prey clone fused to the Gal4 activation domain (other, Saccharomyces cerevisiae;human, UniProt P04386 768-881, looked up, not shown: small tags and cut ends)
chain: ANFNQSGNIADSSLSFTFTNSSNGPNLITTQTNSQALSQPIASSNVHDNFMNNEITASKIDDGNNSKPLSPGWTDQTAYNAFGITTGMFNTTTMDDVYNYLFDDEDTPPNPKKEDTKFLCPLCMRSRRPRLETILALLVALQRLPVRLPEGEALQCLTERAISWQGRARQALASEDVTALLGRLAELRQRLQAEPRPEEPPNYPAAPASDPLREGSGKDMPKVQGLLENGDSVTSPEKVAPEEGSGLELLSSLLPQLTGPVLELPEATRAPLEELMMEGDLLEVTLDENHSIWQLLQAGQPPDLERIRTLLE
notes: Prey from a human brain cDNA library in pACT2; also called SMCX
B2: the binding result in assay [2] is recorded as “binds”.

B3: Beta catenin (B-CAT), amino acids 487-668, prey clone fused to the Gal4 activation domain (other, Saccharomyces cerevisiae;human, UniProt P04386 768-881, looked up, not shown: small tags and cut ends)
chain: ANFNQSGNIADSSLSFTFTNSSNGPNLITTQTNSQALSQPIASSNVHDNFMNNEITASKIDDGNNSKPLSPGWTDQTAYNAFGITTGMFNTTTMDDVYNYLFDDEDTPPNPKKELHYGLPVVVKLLHPPSHWPLIKATVGLIRNLALCPANHAPLREQGAIPRLVQLLVRAHQDTQRRTSMGGTQQQFVEGVRMEEIVEGCTGALHILARDVHNRIVIRGLNTIPLFVQLLYSPIENIQRVAAGVLCELAQDKEAAEAIEAEGATAPLTELLHSRNEGVATYAAAVLFRMSEDKPQ
notes: Prey from a human brain cDNA library in pACT2; residues counted on GenBank Z19054
In the case of B3, the binding result in assay [1] is recorded as “binds”.

B4: PN12361, amino acids 1-223, prey clone fused to the Gal4 activation domain (other, Saccharomyces cerevisiae, not shown: small tags and cut ends)
chain: ANFNQSGNIADSSLSFTFTNSSNGPNLITTQTNSQALSQPIASSNVHDNFMNNEITASKIDDGNNSKPLSPGWTDQTAYNAFGITTGMFNTTTMDDVYNYLFDDEDTPPNPKKEMDALVEDDICILNHEKAHKRDTVTPVSIYSGDESVASHFALVTAYEDIKKRLKDSEKENSLLKKRIRFLEEKLIARFEEETSSVGREQVNKAYHAYREVCIDRDNLKSKLDKMNKDNSESLKVLNEQLQSKEVELLQLRTEVETQQVMRNLNPPSSNWEVEKLSCDLKIHGLEQELELMRKECSDLKIELQKAKQTDPYQEDNLKSRDLQKLSISSDNMQHAY
notes: range 768-881; Prey from a human brain cDNA library in pACT2; also called novel AZ2-like protein
With B4, in assay [3], the binding result is “binds”.
